Patent US20170290876A1 (Novartis, published 2017)
Like-named read-outs stand apart in the source and are kept apart here.

T1: human VEGF (human, UniProt P15692 207-395, biotinylated (site not stated))
T1 construct: Biotinylated human VEGF generated internally; also called hVEGF; hVEGF-biotin
T1 sequence: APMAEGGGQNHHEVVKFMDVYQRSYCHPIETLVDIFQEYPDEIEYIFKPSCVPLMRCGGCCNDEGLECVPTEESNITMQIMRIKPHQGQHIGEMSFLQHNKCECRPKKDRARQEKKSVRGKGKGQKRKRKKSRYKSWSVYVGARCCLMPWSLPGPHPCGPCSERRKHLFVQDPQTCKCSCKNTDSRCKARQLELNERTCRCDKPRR


Experiments:
[1] = biological target: T1, human VEGF; assay: Biacore SPR, hVEGF
[2] = biological target: T1, human VEGF; assay: Biacore SPR, hVEGF; remark: listed apart in the source
Protocol: At first, individual CDR residues were substituted and the affinity for hVEGF was measured by Biacore as described below. […] HC8T, and HC9T and the affinity of the resulting peptide-tagged Fab for both HA and hVEGF was measured by Biacore as described below (Table 17).
Affinity of optimized HA-binding peptide tags for HA and human VEGF were measured by Biacore. […] In order to determine target kinetics, two different formats were utilized. […] The second format is an anti-fab capture method in which the fab protein samples are captured and the target proteins flowed over at various concentrations.
The sample compartment which includes the analytes, ligands, and regeneration buffer, is kept at 15° C. All other running conditions were carried out at either 25° C. or 37° C. in 1×HBSE+P buffer. […] Data was collected at 10 Hz and analyzed using the Biacore T200 Evaluation Software (GE Healthcare®). This program uses a global fitting analysis method for the determination of rate and affinity constants for each interaction.

Binder	Kd [1]	koff [1]	kon [1]	Kd [2]	koff [2]	kon [2]
NVS4/NVSX (Fab, NVS4 Fab linked to peptide tag NVS-X) heavy: EVQLVESGGGLVQPGGSLRLSCTASGFSLTDYYYMTWVRQAPGKGLEWVGFIDPDDDPYYATWAKGRFTISRDNSKNTLYLQMNSLRAEDTAVYYCAGGDHNSGWGLDIWGQGTLVTVSSASTKGPSVFPLAPSSKSTSGGTAALGCLVKDYFPEPVTVSWNSGALTSGVHTFPAVLQSSGLYSLSSVVTVPSSSLGTQTYICNVNHKPSNTKVDKRVEPKSCGSGGGGVYHREAISGKYYLTYAEAKAVCEFEGGHLATYKQLLAAQKIGFHVCAAGWMAKGRVGYPIVKPGPNCGFGKTGIIDYGIRLNRSERWDAYCYNPHA light: EIVMTQSPSTLSASVGDRVIITCQASEIIHSWLAWYQQKPGKAPKLLIYLASTLASGVPSRFSGSGSGAEFTLTISSLQPDDFATYYCQNVYLASTNGANFGQGTKLTVLKRTVAAPSVFIFPPSDEQLKSGTASVVCLLNNFYPREAKVQWKVDNALQSGNSQESVTEQDSKDSTYSLSSTLTLSKADYEKHKVYACEVTHQGLSSPVTKSFNRGEC	0.465 pM	2.11e-05 s⁻¹	4.53e+07 M⁻¹ s⁻¹	–	–	–
LC6T (Fab, V domains shown, Light chain CDR variant LC6 with tagged NVS4 heavy chain) VH: EVQLVESGGGLVQPGGSLRLSCTASGFSLTDYYYMTWVRQAPGKGLEWVGFIDPDDDPYYATWAKGRFTISRDNSKNTLYLQMNSLRAEDTAVYYCAGGDHNSGWGLDIWGQGTLVTVSS VL: EIVMTQSPSTLSASVGDRVIITCQASQIIHSWLAWYQQKPGKAPKLLIYQASTLAKGVPSRFSGSGSGAEFTLTISSLQPDDFATYYCQNVYLASRNGANFGQGTKLTVLK	–	–	–	1.09 pM	9.66e-05 s⁻¹	8.88e+07 M⁻¹ s⁻¹
LC7T (Fab, V domains shown, Light chain CDR variant LC7 with tagged NVS4 heavy chain) VH: EVQLVESGGGLVQPGGSLRLSCTASGFSLTDYYYMTWVRQAPGKGLEWVGFIDPDDDPYYATWAKGRFTISRDNSKNTLYLQMNSLRAEDTAVYYCAGGDHNSGWGLDIWGQGTLVTVSS VL: EIVMTQSPSTLSASVGDRVIITCQASQKIKSWLAWYQQKPGKAPKLLIYLASTLAKGVPSRFSGSGSGAEFTLTISSLQPDDFATYYCQNVYLASRNGANFGQGTKLTVLK	–	–	–	3.79 pM	0.000229 s⁻¹	6.06e+07 M⁻¹ s⁻¹
NVS4/NVSY (Fab, NVS4 Fab linked to peptide tag NVS-Y) heavy: EVQLVESGGGLVQPGGSLRLSCTASGFSLTDYYYMTWVRQAPGKGLEWVGFIDPDDDPYYATWAKGRFTISRDNSKNTLYLQMNSLRAEDTAVYYCAGGDHNSGWGLDIWGQGTLVTVSSASTKGPSVFPLAPSSKSTSGGTAALGCLVKDYFPEPVTVSWNSGALTSGVHTFPAVLQSSGLYSLSSVVTVPSSSLGTQTYICNVNHKPSNTKVDKRVEPKSCGSGGGGVYHREAISGKYYLTYAEAKAVCEFEGGHLATYKQLQAAQKIGFHVCAAGWMAKGRVGYPIVKPGPNCGFGKTGIIDYGIRLNRSERWDAYCYNPHA light: EIVMTQSPSTLSASVGDRVIITCQASEIIHSWLAWYQQKPGKAPKLLIYLASTLASGVPSRFSGSGSGAEFTLTISSLQPDDFATYYCQNVYLASTNGANFGQGTKLTVLKRTVAAPSVFIFPPSDEQLKSGTASVVCLLNNFYPREAKVQWKVDNALQSGNSQESVTEQDSKDSTYSLSSTLTLSKADYEKHKVYACEVTHQGLSSPVTKSFNRGEC	0.447 pM	2.26e-05 s⁻¹	5.06e+07 M⁻¹ s⁻¹	–	–	–
NVS102 (Fab, Tag NVS-AX at the C-terminus of the NVS4 heavy chain) heavy: QVQLVESGGGLVQPGGSLRLSCTASGFSLTDYYYMTWVRQAPGKGLEWVGFIDPDDDPYYATWAKGRFTISRDNSKNTLYLQMNSLRAEDTAVYYCAGGDHNSGWGLDIWGQGTLVTVSSASTKGPSVFPLAPSSKSTSGGTAALGCLVKDYFPEPVTVSWNSGALTSGVHTFPAVLQSSGLYSLSSVVTVPSSSLGTQTYICNVNHKPSNTKVDKRVEPKSCGSGGGACGVYHREAQSGKYYLTYAEAKAVCEFEGGHLATYKQLLCAQKIGFHVCAAGWMAKGRVGYPIVKPGPNCGFGKTGIIDYGIRLNRSERWDAYCYNPHA light: EIVMTQSPSTLSASVGDRVIITCQASEIIHSWLAWYQQKPGKAPKLLIYLASTLASGVPSRFSGSGSGAEFTLTISSLQPDDFATYYCQNVYLASTNGANFGQGTKLTVLKRTVAAPSVFIFPPSDEQLKSGTASVVCLLNNFYPREAKVQWKVDNALQSGNSQESVTEQDSKDSTYSLSSTLTLSKADYEKHKVYACEVTHQGLSSPVTKSFNRGEC	1.43 pM	0.000134 s⁻¹	9.35e+07 M⁻¹ s⁻¹	–	–	–
NVS100 (Fab, Tag NVS-AX at the N-terminus of the NVS4 heavy chain) heavy: GACGVYHREAQSGKYYLTYAEAKAVCEFEGGHLATYKQLLCAQKIGFHVCAAGWMAKGRVGYPIVKPGPNCGFGKTGIIDYGIRLNRSERWDAYCYNPHAGGGSQVQLVESGGGLVQPGGSLRLSCTASGFSLTDYYYMTWVRQAPGKGLEWVGFIDPDDDPYYATWAKGRFTISRDNSKNTLYLQMNSLRAEDTAVYYCAGGDHNSGWGLDIWGQGTLVTVSSASTKGPSVFPLAPSSKSTSGGTAALGCLVKDYFPEPVTVSWNSGALTSGVHTFPAVLQSSGLYSLSSVVTVPSSSLGTQTYICNVNHKPSNTKVDKRVEPKSC light: EIVMTQSPSTLSASVGDRVIITCQASEIIHSWLAWYQQKPGKAPKLLIYLASTLASGVPSRFSGSGSGAEFTLTISSLQPDDFATYYCQNVYLASTNGANFGQGTKLTVLKRTVAAPSVFIFPPSDEQLKSGTASVVCLLNNFYPREAKVQWKVDNALQSGNSQESVTEQDSKDSTYSLSSTLTLSKADYEKHKVYACEVTHQGLSSPVTKSFNRGEC	1.34 pM	4.97e-05 s⁻¹	3.71e+07 M⁻¹ s⁻¹	–	–	–
NVS101 (Fab) heavy: EVQLVESGGGLVQPGGSLRLSCTASGFSLTDYYYMTWVRQAPGKGLEWVGFIDPDDDPYYATWAKGRFTISRDNSKNTLYLQMNSLRAEDTAVYYCAGGDHNSGWGLDIWGQGTLVTVSSASTKGPSVFPLAPSSKSTSGGTAALGCLVKDYFPEPVTVSWNSGALTSGVHTFPAVLQSSGLYSLSSVVTVPSSSLGTQTYICNVNHKPSNTKVDKRVEPKSC light: ACGVYHREAQSGKYYLTYAEAKAVCEFEGGHLATYKQLLCAQKIGFHVCAAGWMAKGRVGYPIVKPGPNCGFGKTGIIDYGIRLNRSERWDAYCYNPHAGGGSDIVMTQSPSTLSASVGDRVIITCQASEIIHSWLAWYQQKPGKAPKLLIYLASTLASGVPSRFSGSGSGAEFTLTISSLQPDDFATYYCQNVYLASTNGANFGQGTKLTVLKRTVAAPSVFIFPPSDEQLKSGTASVVCLLNNFYPREAKVQWKVDNALQSGNSQESVTEQDSKDSTYSLSSTLTLSKADYEKHKVYACEVTHQGLSSPVTKSFNRGEC	7.1 pM	0.000219 s⁻¹	3.09e+07 M⁻¹ s⁻¹	–	–	–
NVS103 (Fab, Tag NVS-AX at the C-terminus of the NVS4 light chain) heavy: EVQLVESGGGLVQPGGSLRLSCTASGFSLTDYYYMTWVRQAPGKGLEWVGFIDPDDDPYYATWAKGRFTISRDNSKNTLYLQMNSLRAEDTAVYYCAGGDHNSGWGLDIWGQGTLVTVSSASTKGPSVFPLAPSSKSTSGGTAALGCLVKDYFPEPVTVSWNSGALTSGVHTFPAVLQSSGLYSLSSVVTVPSSSLGTQTYICNVNHKPSNTKVDKRVEPKSC light: DIVMTQSPSTLSASVGDRVIITCQASEIIHSWLAWYQQKPGKAPKLLIYLASTLASGVPSRFSGSGSGAEFTLTISSLQPDDFATYYCQNVYLASTNGANFGQGTKLTVLKRTVAAPSVFIFPPSDEQLKSGTASVVCLLNNFYPREAKVQWKVDNALQSGNSQESVTEQDSKDSTYSLSSTLTLSKADYEKHKVYACEVTHQGLSSPVTKSFNRGECGSGGGACGVYHREAQSGKYYLTYAEAKAVCEFEGGHLATYKQLLCAQKIGFHVCAAGWMAKGRVGYPIVKPGPNCGFGKTGIIDYGIRLNRSERWDAYCYNPHA	2.34 pM	0.000128 s⁻¹	5.49e+07 M⁻¹ s⁻¹	–	–	–
NVS104 (Fab, Tag NVS-AX at the N-terminus of NVS4 heavy and light chains) heavy: GACGVYHREAQSGKYYLTYAEAKAVCEFEGGHLATYKQLLCAQKIGFHVCAAGWMAKGRVGYPIVKPGPNCGFGKTGIIDYGIRLNRSERWDAYCYNPHAGGGSQVQLVESGGGLVQPGGSLRLSCTASGFSLTDYYYMTWVRQAPGKGLEWVGFIDPDDDPYYATWAKGRFTISRDNSKNTLYLQMNSLRAEDTAVYYCAGGDHNSGWGLDIWGQGTLVTVSSASTKGPSVFPLAPSSKSTSGGTAALGCLVKDYFPEPVTVSWNSGALTSGVHTFPAVLQSSGLYSLSSVVTVPSSSLGTQTYICNVNHKPSNTKVDKRVEPKSC light: ACGVYHREAQSGKYYLTYAEAKAVCEFEGGHLATYKQLLCAQKIGFHVCAAGWMAKGRVGYPIVKPGPNCGFGKTGIIDYGIRLNRSERWDAYCYNPHAGGGSDIVMTQSPSTLSASVGDRVIITCQASEIIHSWLAWYQQKPGKAPKLLIYLASTLASGVPSRFSGSGSGAEFTLTISSLQPDDFATYYCQNVYLASTNGANFGQGTKLTVLKRTVAAPSVFIFPPSDEQLKSGTASVVCLLNNFYPREAKVQWKVDNALQSGNSQESVTEQDSKDSTYSLSSTLTLSKADYEKHKVYACEVTHQGLSSPVTKSFNRGEC	0.854 pM	1.57e-05 s⁻¹	1.84e+07 M⁻¹ s⁻¹	–	–	–
NVS106 (Fab, Tag NVS-AX at the N-terminus of the LC2 light chain and the HC4 heavy chain) heavy: GACGVYHREAQSGKYYLTYAEAKAVCEFEGGHLATYKQLLCAQKIGFHVCAAGWMAKGRVGYPIVKPGPNCGFGKTGIIDYGIRLNRSERWDAYCYNPHAGGGSEVQLVESGGGLVQPGGSLRLSCTASGFSLTNYYYMTWVRQAPGKGLEWVGFIDPQNDPYYATWAKGRFTISRDNSKNTLYLQMNSLRAEDTAVYYCAGGNHNSGWGLNIWGQGTLVTVSSASTKGPSVFPLAPSSKSTSGGTAALGCLVKDYFPEPVTVSWNSGALTSGVHTFPAVLQSSGLYSLSSVVTVPSSSLGTQTYICNVNHKPSNTKVDKRVEPKSC light: ACGVYHREAQSGKYYLTYAEAKAVCEFEGGHLATYKQLLCAQKIGFHVCAAGWMAKGRVGYPIVKPGPNCGFGKTGIIDYGIRLNRSERWDAYCYNPHAGGGSEIVMTQSPSTLSASVGDRVIITCQASQKIHSWLAWYQQKPGKAPKLLIYQASKLAKGVPSRFSGSGSGAEFTLTISSLQPDDFATYYCQNVYLASTNGANFGQGTKLTVLKRTVAAPSVFIFPPSDEQLKSGTASVVCLLNNFYPREAKVQWKVDNALQSGNSQESVTEQDSKDSTYSLSSTLTLSKADYEKHKVYACEVTHQGLSSPVTKSFNRGEC	10.4 pM	0.000563 s⁻¹	5.4e+07 M⁻¹ s⁻¹	–	–	–
